T1: purified p56-RB (Homo sapiens (Human), UniProt P06400)
T1 sequence: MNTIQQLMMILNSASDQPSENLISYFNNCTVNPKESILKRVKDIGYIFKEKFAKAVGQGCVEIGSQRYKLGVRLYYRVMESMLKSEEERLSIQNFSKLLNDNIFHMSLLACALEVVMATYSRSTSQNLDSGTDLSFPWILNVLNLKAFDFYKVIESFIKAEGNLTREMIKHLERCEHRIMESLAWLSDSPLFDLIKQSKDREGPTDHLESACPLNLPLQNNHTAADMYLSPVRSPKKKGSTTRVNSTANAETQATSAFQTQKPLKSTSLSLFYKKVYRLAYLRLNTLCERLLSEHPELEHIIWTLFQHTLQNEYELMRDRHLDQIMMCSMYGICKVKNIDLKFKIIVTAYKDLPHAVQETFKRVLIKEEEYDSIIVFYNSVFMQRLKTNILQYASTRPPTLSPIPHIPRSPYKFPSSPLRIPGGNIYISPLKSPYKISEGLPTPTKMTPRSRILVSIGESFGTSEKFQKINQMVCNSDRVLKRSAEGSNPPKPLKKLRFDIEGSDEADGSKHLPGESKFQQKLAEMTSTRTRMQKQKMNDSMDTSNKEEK

B1: MBP-10/NB (other)
chain: LLQGLDEAKNNYIVLQSSVNGLIQEVEDGKQKLEKKDEEISRLKNQIQDQEQLVSKLSQVEGEHQLWKEQNLELRNLTVELEQKIQVLQSKNASLQDTLEVLQSSYKNLENELELTKMDKMSFVEKVNKMTAKETELQREMHEMAQKTAELQEELSGEKNRLAGELQLLLEEIKSSKDQLKELTLENSE
B2: MBP-10 (other)
chain: LLQGLDEAKNNYIVLQSSVNGLIQEVEDGKQKLEKKDEEISRLKNQIQDQEQLVSKLSQVEGEHQLWKEQNLELRNLTVELEQKIQVLQSKNASLQDTLEVLQSSYKNLENELELTKMDKMSFVEKVNKMTAKETELQREMHEMAQKTAELQEELSGEKNRLAGELQLLLEEIKSSKDQLKELTLENSELKKSLDCMHKDQVEKEGKVREEIAEYQLRLHEAEKKHQALLLDTNKQYEVEIQTYREKLTSKEECLSSQKLEIDLLKSSKEELNNSLKATTQILEELKKTKMDNLKYVNQLKKENERAQGKMKLLIKSCKQLEEEKEILQKELSQLQAAQEKQKTGTVMDTKVDELTTEIKELKETLEEKTKEADEYLDKYCSLLISHEKLEKAKEMLETQVAHLCSQQSKQDSRGSPLLGPVVPGPSPIPSVTEKRLSSGQNKASGKRQRSSGIWENGGGPTPATPESFSKKSKKAVMSGIHPAEDTEGTEFEPEGLPEVVKKGFADIPTGKTSPYILRRTTMATRTSPRLAAQKLALSPLSLGKENLAESSKPTAGGSRSQKVKVAQRSPVDSGTILREPTTKSVPVNNLPERSPTDSPREGLRVKRGRLVPSPKAGLESKGSENCKVQ
B3: MBP-10/H (other)
chain: LLQGLDEAKNNYIVLQSSVNGLIQEVEDGKQKLEKKDEEISRLKNQIQDQEQLVSKLSQVEGEHQLWKEQNLELRNLTVELEQKIQVLQSKNASLQDTLEVLQSSYKNLENELELTKMDKMSFVEKVNKMTAKETELQREMHEMAQKTAELQEELSGEKNRLAGELQLLLEEIKSSKDQLKELTLENSELKKSLDCMHKDQVEKEGKVREEIAEYQLRLHEAEKKHQALLLDTNKQYEVEIQTYREKLTSKEECLSSQKLEIDLLKSSKEELNNSLKATTQILEELKKTKMDNLKYVNQLKKENERAQGKMKLLIKSCKQLEEEKEILQKELSQLQAAQEKQKTGTVMDTKVDELTTEIKELKETLEEKTKEADEYLDKYCSLLISHEKLEKAKEMLETQVAHLCSQQSKQDSRGSPLLGPVVPGPSPIPSVTEKRLSSGQNKA
B4: MBP-10/NI (other)
chain: LGPVVPGPSPIPSVTEKRLSSGQNKASGKRQRSSGIWENGGGPTPATPESFSKKSKKAVMSGIHPAEDTEGTEFEPEGLPEVVKKGFADIPTGKTSPYILRRTTMATRTSPRLAAQKLALSPLSLGKENLAESSKPTAGGSRSQKVKVAQRSPVDSGTILREPTTKSVPVNNLPERSPTDSPREGLRVKRGRLVPSPKAGLESKGSENCKVQ
B5: GST-1045 (other)
chain: MSGIHPAEDTEGTEFEPEGLPEVVKKGFADIPTGKTSPYILRRTTM
B6: MBP-10/KN (other)
chain: LAGELQLLLEEIKSSKDQLKELTLENSELKKSLDCMHKDQVEKEGKVREEIAEYQLRLHEAEKKHQALLLDTNKQYEVEIQTYREKLTSKEECLSSQKLEIDLLKSSKEELNNSLKATTQILEELKKTKMDNLKYVNQLKKENERAQGKMKLLIKSCKQLEEEKEILQKELSQLQAAQEKQKTGTVMDTKVDELTTEIKELKETLEEKTKEADEYLDKYCSLLISHEKLEKAKEMLETQVAHLCSQQSKQDSRGSPLLGPVVPGPSPIPSVTEKRLSSGQNKASGKRQRSSGIWENGGGPTPATPESFSKKSKKAVMSGIHPAEDTEGTEFEPEGLPEVVKKGFADIPTGKTSPYILRRTTMATRTSPRLAAQKLALSPLSLGKENLAESSKPTAGGSRSQKVKVAQRSPVDSGTILREPTTKSVPVNNLPERSPTDSPREGLRVKRGRLVPSPKAGLESKGSENCKVQ
B7: MBP-T antigen (other)
chain: MDKVLNREESLQLMDLLGLERSAWGNIPLMRKAYLKKCKEFHPDKGGDEEKMKKMNTLYKKMEDGVKYAHQPDFGGFWDATEIPTYGTDEWEQWWNAFNEENLFCSEEMPSSDDEATADSQHSTPPKKKRKVEDPKDFPSELLSFLSHAVFSNRTLACFAIYTTKEKAALLYKKIMEKYSVTFISRHNSYNHNILFFLTPHRHRVSAINNYAQKLCTFSFLICKGVNKEYLMYSALTRDPFSVIEESLPGGLKEHDFNPEEAEETKQVSWKLVTEYAMETKCDDVLLLLGMYLEFQYSFE

What was measured:
[1] = target: T1, purified p56-RB; assay: blot of purified MBP fusion proteins probed with the Rb-sandwich
[2] = target: T1, purified p56-RB; assay: blot of purified MBP fusion proteins probed with the Rb-sandwich; the faint band in lane 3 is called an artifact in paragraph 24
Text: (§1) (A) Two identical blots containing seven purified MBP fusion proteins were probed with either the "Rb-sandwich" (lanes 1–7) or with an antibody to MBP (New England Biolabs) (lanes 8–14). […] (B) Similarly, two identical blots of the purified GST-fusion proteins were probed with either the "Rb-sandwich" (lanes 15–17) or with an antibody to GST (lanes 18–20). […] (C) A diagram of the different constructs used in this experiment. […] (D) Sequence comparison of the Rb-binding region of mitosin with the Rb-binding domain of E2F-1 (in bold letters) and neighboring residues (SEQ. ID NOS: 3 and 4). […] Dashed lines indicate conserved residues and solid lines indicate identical residues.

[3] = target: T1, purified p56-RB; assay: blot of purified GST fusion proteins probed with the Rb-sandwich (figure legend)
Text: as §1

Binder	binding result [1]	also measured
B1	no binding	–
B2	binds	–
B3	–	binding result [2]: no binding
B4	binds	–
B5	–	binding result [3]: binds
B6	binds	–
B7	binds	–
